Columns and labels:
[1] = target: T1, βarrestin1/βarrestin2 hetero-oligomers (UniProt P29067+P49407); test: PLA for βarrestin1/βarrestin2 hetero-oligomers in HeLa-V5-tau cells; format: cell-based
T1 construct: expressed in transfected cells; host or cells: HeLa-V5-tau cells
Source text: FIGS. 24A to 24D show β-arrestin2 oligomerization mutants impair β-arrestin1 homo-oligomers and β-arrestin1/β-arrestin2 hetero-oligomers. HeLa-V5-tau cells were co-transfected with vector control or β-arrestin2 oligomerization mutants (ΔIP6C or ΔIP6N) together with βarrestin1-GFP+βarrestin1-myc or βarrestin2-myc. Cells were then subjected to proximity ligation assay (PLA) using antibodies against GFP and mycto detect βarrestin1 homo-oligomers (FIGS. 24A,24B) and βarrestin1/βarrestin2 hetero-oligomers and DAPI staining (FIGS. 24C,24D) (puncta).

[2] = test system: tau aggregates; test: Filter-trap assay for tau aggregates from Hela-V5-tau cells; format: cell-based; details: vs control vector
Source text: (§1) FIGS. 11A to 11E show β-arrestin2 oligomerization mutants reduce tau aggregates. FIG. 11A contains representative confocal images of total tau in Hela-V5-tau cells transfected with YFP, YFP-β-arrestin2 ΔIP6C, or YFP-β-arrestin2 ΔIP6N (Scale bar=10 μm). FIG. 11B contains representative confocal images of proximity ligation assay (PLA) in Hela-V5-tau cells transfected with β-arrestin2-flag and β-arrestin2-myc with YFP control, YFP-β-arrestin2 ΔIP6C, or YFP-β-arrestin2 ΔIP6N.
When DIV 18 tau P301S cortical primary neurons were transduced with either β-arrestin2 ΔIP6C or ΔIP6N lentivirus, an approximately 50% reduction in tau compared to control was evident (FIGS. 4A,4B), which represents a key finding relevant to both mechanism of action and potential therapeutic strategies. […] Also investigated was whether β-arrestin2 oligomerization is required for slowing tau turnover by disrupting oligomerization using these mutants in several models. […] To determine whether β-arrestin2 oligomerization status alters tau aggregation itself, filter-trap assays were performed from Hela-V5-tau cells transfected with β-arrestin2 variants, in which tau aggregates from detergent-soluble and-insoluble lysates were captured by cellulose acetate membranes and assessed by immunoblotting.

[3] = test system: activated GPCRs; details: cited from earlier work
[4] = test system: tau in tau P301S cortical primary neurons; test: Tau immunoblot of DIV18 tau P301S cortical primary neurons transduced with β-arrestin2 mutant lentivirus; format: cell-based, mice; details: DIV 18 tau P301S cortical primary neurons
Method: FIGS. 4A to 4E show β-arrestin2 oligomerization is required for suppressing tau turnover. […] Data are shown as box plots or mean±SEM.
Primary mouse hippocampal and cortical neuronal cultures were previously described (Woo J A, et al. (2019) Commun Biol 2:112; Woo J A, et al. (2017) Hum Mol Genet 26(20):3973-3988; Woo J A, et al. (2015) Cell Death Differ 22(6):1069-1070). Briefly, primary neurons were prepared from P0 mice. Both hippocampus and cortex were dissected separately in HBSS and digested with trypsin. Neurons were plated on glass coverslips coated with poly-D-lysine (Sigma-Aldrich, St Louis, MO, USA) and maintained in neurobasal medium with glutamax (Invitrogen, Carlsbad, CA, USA) and B27 supplement (Invitrogen, Carlsbad, CA, USA). […]
When DIV 18 tau P301S cortical primary neurons were transduced with either β-arrestin2 ΔIP6C or ΔIP6N lentivirus, an approximately 50% reduction in tau compared to control was evident (FIGS. 4A,4B), which represents a key finding relevant to both mechanism of action and potential therapeutic strategies. […] To determine whether β-arrestin2 oligomerization status alters tau aggregation itself, filter-trap assays were performed from Hela-V5-tau cells transfected with β-arrestin2 variants, in which tau aggregates from detergent-soluble and-insoluble lysates were captured by cellulose acetate membranes and assessed by immunoblotting.

[5] = test system: tau in Hela-V5-tau cells; test: Tau immunocytochemistry in Hela-V5-tau cells expressing YFP-β-arrestin2 mutants; format: cell-based
Source text: as §1
Cells were fixed with 4% paraformaldehyde for 15 min at room temperature and washed with 0.2% triton in TBS and blocked using 3% BSA with 0.1% triton x-100 for 1 hr, incubated with primary antibodies for overnight at 4° C. and fluorescently labeled secondary antibodies for 45 min at room temperature. For immunohistochemistry, mice were perfused with PBS and fixed with 4% paraformaldehyde. […] Images were captured with the Olympus FV10i confocal microscope (Tokyo, Japan), and the immunoreactivities were quantified using the Image J software (National Institutes of Health, Bethesda, MD). Immunoreactivities were quantitated from every 12th serial section through an entire hippocampus. […] Regions of interest were chosen randomly, and investigators were blinded to experimental conditions during image acquisition and quantification. […]

[6] = test system: p62 autophagy flux; details: primary neurons, rAAV9 mCherry-EGFP-p62
Source text: To directly test this hypothesis, the mCherry-EGFP-p62 autophagy flux reporter was used. This reporter takes advantage of the sensitivity of GFP to low pH (which quenches the signal) and the insensitivity of mCherry to low pH. Therefore, colocalized red and green puncta are indicative of non-lysosomal p62 at steady-state.

T1 sequence (P49407 whole entry): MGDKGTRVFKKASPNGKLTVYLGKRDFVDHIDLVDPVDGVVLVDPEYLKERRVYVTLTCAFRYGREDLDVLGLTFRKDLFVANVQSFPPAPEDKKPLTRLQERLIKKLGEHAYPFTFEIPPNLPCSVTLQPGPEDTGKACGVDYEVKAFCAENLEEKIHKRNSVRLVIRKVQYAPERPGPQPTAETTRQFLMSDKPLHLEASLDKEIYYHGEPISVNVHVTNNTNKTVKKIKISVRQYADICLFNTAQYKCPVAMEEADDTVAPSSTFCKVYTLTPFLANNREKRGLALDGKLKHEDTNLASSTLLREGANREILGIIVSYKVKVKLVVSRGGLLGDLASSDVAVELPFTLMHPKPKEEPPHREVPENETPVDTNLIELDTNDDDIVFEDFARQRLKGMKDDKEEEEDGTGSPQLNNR
T1 sequence (P29067 whole entry): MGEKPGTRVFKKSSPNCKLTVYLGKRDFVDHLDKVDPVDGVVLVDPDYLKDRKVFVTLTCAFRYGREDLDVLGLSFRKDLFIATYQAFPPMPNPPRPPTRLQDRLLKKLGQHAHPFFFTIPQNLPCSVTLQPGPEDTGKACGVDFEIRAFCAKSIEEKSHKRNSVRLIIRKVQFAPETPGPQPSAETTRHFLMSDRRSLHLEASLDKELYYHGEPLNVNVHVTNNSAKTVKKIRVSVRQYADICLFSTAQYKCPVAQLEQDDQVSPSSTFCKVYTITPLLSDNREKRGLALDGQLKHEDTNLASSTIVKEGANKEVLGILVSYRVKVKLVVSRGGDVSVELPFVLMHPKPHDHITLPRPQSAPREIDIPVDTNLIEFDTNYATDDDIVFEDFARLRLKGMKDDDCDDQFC

B1: β-arrestin2 ΔIP6N: β-arrestin2 N-terminal domain mutant (K158A, K161A, and R162A), incapable of forming oligomers; dominant negative (protein, UniProt P32121 1-409, looked up, variant K158A K161A R162A)
Beta-arrestin-2: MGEKPGTRVFKKSSPNCKLTVYLGKRDFVDHLDKVDPVDGVVLVDPDYLKDRKVFVTLTCAFRYGREDLDVLGLSFRKDLFIATYQAFPPVPNPPRPPTRLQDRLLRKLGQHAHPFFFTIPQNLPCSVTLQPGPEDTGKACGVDFEIRAFCAKSLEEASHAANSVRLVIRKVQFAPEKPGPQPSAETTRHFLMSDRSLHLEASLDKELYYHGEPLNVNVHVTNNSTKTVKKIKVSVRQYADICLFSTAQYKCPVAQLEQDDQVSPSSTFCKVYTITPLLSDNREKRGLALDGKLKHEDTNLASSTIVKEGANKEVLGILVSYRVKVKLVVSRGGDVSVELPFVLMHPKPHDHIPLPRPQSAAPETDVPVDTNLIEFDTNYATDDDIVFEDFARLRLKGMKDDDYDDQLC
modifications: GFP or YFP tag
notes: dominant negative
βarrestin1/βarrestin2 hetero-oligomers (PLA puncta) [1]: significantly reduce
tau aggregates in detergent-insoluble lysates (filter-trap) [2]: significantly reduced tau aggregates
binding to activated GPCRs [3]: bind to activated GPCRs with WT affinity
reduction in tau compared to control [4]: approximately 50%
tau by immunocytochemistry [5]: significant reductions
ratio of mCherry only to total puncta [6]: significantly increased

— US11896644B2, “Inhibition of beta-arrestin oligomerization in tauopathy” (UNIVERSITY OF SOUTH FLORIDA, priority 2020, dated 2024)
